The labels stand for the following.
B1: Hairpin Ribozyme (parent)
chain: GUCCUCUUUCACGUGCGCGUGAAAGAGAGAAGUGAACCAGAGAAACACACGUUGUGGUAUAUUACCUGGUA

This passage reports self-cleavage results from the RNAGym collection of RNA variant scans (doi:10.7554/elife.80360).

Variants of B1 are the subject of the data set. As to the kind of experiment: self-cleavage, relative activity (ratio to wild type); higher = more cleavage; co-transcriptional.
As for A49G U63G, the self-cleavage is 0.158. Under C46G G68A stands 0.123; under C46G G68U, 0.19; under C50G G51A, 0.249.

As for C50G G51U, the self-cleavage amounted to 0.375. Under C48U C50G stands 0.109; under C48U C50A, 0.0417; under C48U C50U, 0.0683. As to C50U U55G, the self-cleavage amounted to 0.368. Then A47C C50A, with 0.29. Turning to G51A A59G, the self-cleavage is 0.25. Then G51A A59U, with 0.178; and C48G A61U, with 0.0929; and A49G G68U, with 0.215. Under C48A G56C stands 0.131; under A47G C48A, 0.122; under A47C C66A, 0.205. Under C50A G69C stands 0.12; under C48G U60G, 0.108; under C48G U60A, 0.121. In the case of C50G A61U, the self-cleavage is 0.248. Take C50G A61C: the self-cleavage is 0.0643. Under C50G A61G stands 0.175. Then A47C U62G, with 0.227; and A49U A64U, with 0.0352. Then A49G U58C, with 0.532. Turning to A49G U58G, the self-cleavage worked out at 0.45. Under A47U C48G stands 0.137.

On to C50G G57C, for which the self-cleavage was determined as 0.181. Under C50G G57A stands 0.0857. Then C50A A61C, with 0.173; and A47U A59G, with 0.151. Then C46U U58C, with 0.221. Turning to A47G U58C, the self-cleavage is 0.17.

In the case of A49C C66U, the self-cleavage amounted to 0.183. On to A49C C66G, for which the self-cleavage was found to be 0.301. Under A47U C66A stands 0.157; under A47U C66U, 0.228; under C48U U55C, 0.132. In the case of A47U U63C, the self-cleavage amounted to 0.175. A49U G69C: the self-cleavage is 0.139. Then A49U G69U, with 0.193; and A49G U60G, with 0.547. Then A47U U52C, with 0.0664.

Regarding A47U A71U, the self-cleavage stood at 0.234. Under A47U A71G stands 0.191; under C46U G51A, 0.132.

In the case of C48A G68A, the self-cleavage was found to be 0.165. Then C48A G68C, with 0.246. C48A U63G: the self-cleavage is 0.229.

Consider C48A U63A, for which the self-cleavage turned out to be 0.174. Under C46U A61G stands 0.129; under C46U A61C, 0.0903. Regarding C48U U58C, the self-cleavage is 0.333. Under A49U U52A stands 0.209; under C46U U70C, 0.161. For the variant C50G G56A, the self-cleavage came to 0.226. In the case of C50G G56C, the self-cleavage is 0.0923. Then C50G G56U, with 0.124; and A47C U55A, with 0.195.

As for C50G A59U, the self-cleavage stood at 0.112. Under C46U G54U stands 0.179; under C48U C66G, 0.138. Then C48U C66U, with 0.194; and C48G U52G, with 0.225. Under A49C A61U stands 0.104; under C48G U70C, 0.302; under G51A A64C, 0.173.

In the case of C46U C65G, the self-cleavage stood at 0.087. Under A47U C50U stands 0.171; under A47G G57A, 0.151; under A47G U62A, 0.0725. Then A47U G57U, with 0.0955. Then C50A A64C, with 0.124; and C50A A64U, with 0.13.

For the variant C50G U52A, the self-cleavage was determined as 0.216. Under A49U G51U stands 0.135; under C50G U55G, 0.368; under C50G U55A, 0.153. Then C48A U60A, with 0.134; and C48U A49C, with 0.225; and A49C U70A, with 0.157. Under A49C U70G stands 0.0833; under A49C U70C, 0.0597; under C48U G54U, 0.203. For C48U G54A, the self-cleavage turned out to be 0.163. Under C48U G54C stands 0.129; under C50A U67C, 0.0958; under C50A U67G, 0.118. Under C46U A49G stands 0.24; under C46U A49U, 0.239; under C50G U60A, 0.268.

C50G U60G: the self-cleavage was found to be 0.158.

As to C46G U53A, the self-cleavage amounted to 0.0595.

Take C46G U53C: the self-cleavage came out at 0.0868.

Consider C48G G57C, for which the self-cleavage is 0.169. For the variant C48A A61U, the self-cleavage was found to be 0.163. Take A49U U62G: the self-cleavage worked out at 0.0483.

In the case of G51A A61G, the self-cleavage worked out at 0.269.

For G51A A61U, the self-cleavage stood at 0.192. Take C46G U63A: the self-cleavage amounted to 0.279. Then C48A A49C, with 0.155.

With C48A A49G, the self-cleavage stood at 0.215. Under C48A A49U stands 0.172; under C48G G54C, 0.189; under C48G G54A, 0.172. Under C50A A59C stands 0.167. Under C50A A59G stands 0.0618. As for C50A G57A, the self-cleavage was determined as 0.138. Then C50A, with 0.283; and C50G, with 0.275; and C50U, with 0.396. Then C50U U58C, with 0.232; and C50U U58A, with 0.194. Take C48G G69A: the self-cleavage was 0.224. Under C48G G69C stands 0.0597. Then C48G G69U, with 0.0941. Under C48G A49G stands 0.123; under C48G A49U, 0.104; under A49G, 0.57. As to A49U, the self-cleavage turned out to be 0.179. Then A49C, with 0.161; and C46U C66U, with 0.149. Under C48U A61U stands 0.151; under C46U U60A, 0.16. Under C46U U60C stands 0.247; under C46G U52A, 0.189; under C46G U52G, 0.232.

C46G U52C: the self-cleavage came out at 0.144. Then C46U C50G, with 0.0749. As to C46U U52C, the self-cleavage was 0.215.

With A47U A64U, the self-cleavage was determined as 0.123. Turning to A47U A64G, the self-cleavage turned out to be 0.0969. Then A49C C50G, with 0.129; and C48A U52G, with 0.131. For the variant C48A U52C, the self-cleavage came out at 0.162. Under G51A A71C stands 1.49; under C48A U70C, 0.27. Then A47G U60G, with 0.0656. Regarding C50A U53C, the self-cleavage was 0.296. On to C50U U70G, for which the self-cleavage came to 0.178. Then C50U U70C, with 0.34; and C50A G56U, with 0.274.

As for C50A G56C, the self-cleavage was 0.104. As for C50A U60A, the self-cleavage came out at 0.388. Under C46G U70C stands 0.203; under C48U G51A, 0.082. For C48U G51C, the self-cleavage worked out at 0.0415. Turning to C48U U60G, the self-cleavage stood at 0.125.

With C48U U60C, the self-cleavage worked out at 0.389. Under C46G G54C stands 0.0768. With A49C A59U, the self-cleavage was 0.287. Under A47U U55A stands 0.161; under C50U G68A, 0.194; under A47G U52C, 0.124.

G51A C66G: the self-cleavage is 0.611.

With A49G C66U, the self-cleavage is 0.258. Under A49C A71U stands 0.27; under A49C U52C, 0.16; under A47C G68U, 0.298.

On to A49C U60C, for which the self-cleavage came out at 0.165. Under A49C U60A stands 0.333; under C46U G56C, 0.204; under C46U G56A, 0.138. For A49U U55G, the self-cleavage was 0.366.

Take C46U C48G: the self-cleavage turned out to be 0.141. Then A47G G51C, with 0.221.
